Test results published in patent US20220098307A1 (WUHAN YZY BIOPHARMA, published 2022).
Like-named read-outs stand apart in the source and are kept apart here.

What was measured:
[1] = target: T1, Monkey CD3 (monkey); test: flow cytometry, monkey T cells
T1 construct: whole, on cells; also called CD3 of monkey CD3 positive T cells

[2] = target: Human CD38 (human, UniProt P28907 43-300); test: flow cytometry, MM.1S or RPMI 8226 cells
Source text: 1) Cell preparation: T cells isolated from CD3-positive human whole blood were used for a CD3 end affinity detection of multifunctional antibody molecule; positive tumor cells of corresponding antigen were used for detecting affinity of tumor antigen; for example, CD38-positive MM. 1S cells (purchased from the Cell Resource Center of Shanghai Institutes for Biological Sciences, Chinese Academy of Sciences) or RPMI 8226 cells (purchased from the Cell Resource Center of Shanghai Institutes for Biological Sciences, Chinese Academy of Sciences) were used for CD38 antigen detection, and PD-L1 positive H358 cells (purchased from the Cell Resource Center of Shanghai Institutes for Biological Sciences, Chinese Academy of Sciences) were used for PD-L1 antigen detection, and so on. The cells were resuspended with 1% FBS-PBS, adjusted to a density of 4×10⁶/ml, and 50 μl of cells were taken from each well, and then plated at 2×10⁵ per well. Cell plating was operated on ice
2) Addition of the antibody: according to the experimental design, the antibody was diluted gradually, and dilution of antibody was operated on ice. For example, the initial concentration of antibody for dilution was 3000 nM, and the antibody was diluted by 3 times with 11 concentration gradients. The diluted antibody was added to a cell well at 50 μl per well, mixed well, and shaked and incubated at 4° C. 1100 rpm/min for 2 h; after washing, the cells were resuspend in 1% FBS-PBS, and a diluted secondary antibody PE anti-human IgG FC (Biolegend, 409304) was added with a final concentration of 8 ug/ml and a volume of 50 μl/well. At the same time, a well only added with cells and secondary antibody was set as a control, the components were mixed well, and incubated under shaking at 1100 rpm/min at 4° C. for 1 h;
5) Data analysis: the data was analyzed by a flow analysis software FlowJo 7.6 thereby obtaining an average fluorescence intensity of the specific antibody concentration, plotted by a Graphpad Prism 5 with the antibody concentration (nM) as an abscissa and the average fluorescence intensity as an ordinate; the EC50 value was calculated by the method of One site—Specific binding, and the EC50 value indicated the cell affinity of the antibody to the corresponding target antigen.

[3] = target: T2, human CEA (human, UniProt P06731 35-685); test: flow cytometry, human tumor cells (table of the CEA series)
T2 sequence: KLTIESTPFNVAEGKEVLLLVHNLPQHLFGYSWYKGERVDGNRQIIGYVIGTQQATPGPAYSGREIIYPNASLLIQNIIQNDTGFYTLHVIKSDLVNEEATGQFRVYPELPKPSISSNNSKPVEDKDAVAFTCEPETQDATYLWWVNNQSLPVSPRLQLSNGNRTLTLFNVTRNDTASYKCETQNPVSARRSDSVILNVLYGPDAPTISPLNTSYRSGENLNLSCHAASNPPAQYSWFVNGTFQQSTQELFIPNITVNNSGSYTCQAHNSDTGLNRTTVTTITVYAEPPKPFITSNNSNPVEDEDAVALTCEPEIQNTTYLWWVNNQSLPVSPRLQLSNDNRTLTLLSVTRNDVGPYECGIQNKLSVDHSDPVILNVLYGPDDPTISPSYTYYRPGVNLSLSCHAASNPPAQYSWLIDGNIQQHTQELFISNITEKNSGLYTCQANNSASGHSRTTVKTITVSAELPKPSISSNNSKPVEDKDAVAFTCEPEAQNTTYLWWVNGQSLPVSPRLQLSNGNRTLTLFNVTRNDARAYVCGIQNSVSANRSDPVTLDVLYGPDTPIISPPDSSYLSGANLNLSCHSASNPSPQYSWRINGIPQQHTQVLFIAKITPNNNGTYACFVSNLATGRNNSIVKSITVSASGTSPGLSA
In short: (§1)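 For cell-surface binding, T cells served for the CD3 arm and antigen-positive tumor cells (e.g. MM.1S or RPMI 8226 for CD38) for the tumor arm.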

[4] = target: T3, Human CD3ε (human, UniProt P07766 23-126); test: flow cytometry, human T cells
T3 construct: CD3 on T cells isolated from human whole blood
In short: as §1

[5] = target: T1, Monkey CD3; test: flow cytometry, monkey T cells; remark: listed apart in the source

B1: CD38-M1-FES-3 (bispecific antibody)
chain: not shown
heavy: not shown
light: DIELTQPPSVSVAPGQTARISCSGDNLRHYYVYWYQQKPGQAPVLVIYGDSKRPSGIPERFSGSNSGNTATLTISGTQAEDEADYYCQTYTGGASLVFGGGTKLTVLGQGQPKAAPSVTLFPPSSEELQANKATLVCLISDFYPGAVTVAWKADSSPVKAGVETTTPSKQSNNKYAASSYLSLTPEQWKSHRSYSCQVTHEGSTVEKTVAPTECS
notes: structure 1; CD38 (MOR) x CD3 (I2C); CH2 FES; CL is Lc3
In the case of B1, the EC50 [1] is reported as 34 nM and the EC50 [2] is reported as 11.1 nM.

B2: M3IC-NA (bispecific antibody)
fusion heavy: EVKLDETGGGLVQPGRPMKLSCVASGFTFSDYWMNWVRQSPEKGLEWVAQIRNKPYNYETYYSDSVKGRFTISRDDSKSSVYLQMNNLRVEDMGIYYCTGSYYGMDYWGQGTSVTVSSASTKGPSVFPLAPSSKSTSGGTAALGCLVKDYFPEPVTVSWNSGALTSGVHTFPAVLQSSGLYSLSSVVTVPSSSLGTQTYICNVNHKPSNTKVDKKVEPKSCGGGGSGGGGSQVQLVESGGGVVQPGRSLRLSCAASGFTFSTYAMNWVRQAPGKGLEWVARIRSKYNNYATYYADSVKDRFTISRDDSKNTLYLQMNSLRAEDTAVYYCARHGNFGNSYVSWFAYWGQGTLVTVSSASVAAPSVFIFPPSDEQLKSGTASVVCLLNNFYPREAKVQWKVDNALQSGNSQESVTEQDSKDSTYSLSSTLTLSKADYEKHKVYACEVTHQGLSSPVTKSFNRGECDKTHTCPPCPAPELLGGPSVFLFPPKPKDTLMISRTPEVTCVVVDVSHEDPEVKFNWYVDGVEVHNAKTKPREEQYASTYRVVSVLTVLHQDWLNGKEYKCKVSNKALPAPIEKTISKAKGQPREPQVYTLPPCRDELTKNQVSLWCLVKGFYPSDIAVEWESNGQPENNYKTTPPVLDSDGSFFLYSKLTVDKSRWQQGNVFSCSVMHEALHNHYTQKSLSLSPGK
cross light: QTVVTQEPSLTVSPGGTVTLTCRSSTGAVTTSNYANWVQQKPGQAPRGLIGGTNKRAPGVPARFSGSLLGGKAALTLSGVQPEDEAEYYCALWYSNLWVFGGGTKVEIKSSASTKGPSVFPLAPSSKSTSGGTAALGCLVKDYFPEPVTVSWNSGALTSGVHTFPAVLQSSGLYSLSSVVTVPSSSLGTQTYICNVNHKPSNTKVDKKVEPKSC
heavy: EVKLDETGGGLVQPGRPMKLSCVASGFTFSDYWMNWVRQSPEKGLEWVAQIRNKPYNYETYYSDSVKGRFTISRDDSKSSVYLQMNNLRVEDMGIYYCTGSYYGMDYWGQGTSVTVSSASTKGPSVFPLAPSSKSTSGGTAALGCLVKDYFPEPVTVSWNSGALTSGVHTFPAVLQSSGLYSLSSVVTVPSSSLGTQTYICNVNHKPSNTKVDKKVEPKSCDKTHTCPPCPAPELLGGPSVFLFPPKPKDTLMISRTPEVTCVVVDVSHEDPEVKFNWYVDGVEVHNAKTKPREEQYASTYRVVSVLTVLHQDWLNGKEYKCKVSNKALPAPIEKTISKAKGQPREPQVCTLPPSRDELTKNQVSLSCAVKGFYPSDIAVEWESNGQPENNYKTTPPVLDSDGSFFLVSKLTVDKSRWQQGNVFSCSVMHEALHNRFTQKSLSLSPGK
light: DVVMTQTPLSLPVSLGDQASISCRSSQSLVHSNGNTYLRWYLQKPGQSPKVLIYKVSNRFSGVPDRFSGSGSGTDFTLKISRVEAEDLGVYFCSQSTHVPWTFGGGTKLEIKRTVAAPSVFIFPPSDEQLKSGTASVVCLLNNFYPREAKVQWKVDNALQSGNSQESVTEQDSKDSTYSLSSTLTLSKADYEKHKVYACEVTHQGLSSPVTKSFNRGEC
notes: structure 3 isotype control; CH2 N297A; copies: 1 + 1 + 1 + 2
With B2 the binding result [3] was “no binding”, the EC50 [4] was 739 nM and the EC50 [5] was 935 nM.

B3: CD38-M1-G2-2 (bispecific antibody, human IgG1, kappa)
chain: QVQLVESGGGVVQPGRSLRLSCAASGFTFSTYAMNWVRQAPGKGLEWVARIRSKYNNYATYYADSVKDRFTISRDDSKNTLYLQMNSLRAEDTAVYYCARHGNFGNSYVSWFAYWGQGTLVTVSSGGGGSGGGGSGGGGSQTVVTQEPSLTVSPGGTVTLTCRSSTGAVTTSNYANWVQQKPGQAPRGLIGGTNKRAPGVPARFSGSLLGGKAALTLSGVQPEDEAEYYCALWYSNLWVFGGGTKVEIKGRGRGSDKTHTCPPCPAPPVAGPSVFLFPPKPKDTLMISRTPEVTCVVVDVSHEDPEVQFNWYVDGVEVHNAKTKPREEQFNSTFRVVSVLTVVHQDWLNGKEYKCKVSNKGLPAPIEKTISKTKGQPREPQVCTLPPSRDELTKNQVSLSCAVKGFYPSDIAVEWESNGQPENNYKTTPPVLDSDGSFFLVSKLTVDKSRWQQGNVFSCSVMHEALHNHYTQKSLSLSPGK
heavy: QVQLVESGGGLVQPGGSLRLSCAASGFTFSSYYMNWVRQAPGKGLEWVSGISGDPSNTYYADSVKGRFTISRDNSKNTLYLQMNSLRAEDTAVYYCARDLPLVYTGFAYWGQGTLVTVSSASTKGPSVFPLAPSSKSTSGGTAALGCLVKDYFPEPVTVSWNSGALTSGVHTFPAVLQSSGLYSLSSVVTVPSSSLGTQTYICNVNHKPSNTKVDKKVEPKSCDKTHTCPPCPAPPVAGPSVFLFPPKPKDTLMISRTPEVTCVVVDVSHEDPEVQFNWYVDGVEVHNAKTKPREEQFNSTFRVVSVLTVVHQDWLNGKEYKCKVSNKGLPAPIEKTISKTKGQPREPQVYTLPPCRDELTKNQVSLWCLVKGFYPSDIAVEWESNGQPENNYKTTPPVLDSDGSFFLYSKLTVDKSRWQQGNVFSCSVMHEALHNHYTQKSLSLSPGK
light: DIELTQPPSVSVAPGQTARISCSGDNLRHYYVYWYQQKPGQAPVLVIYGDSKRPSGIPERFSGSNSGNTATLTISGTQAEDEADYYCQTYTGGASLVFGGGTKLTVLGQRTVAAPSVFIFPPSDEQLKSGTASVVCLLNNFYPREAKVQWKVDNALQSGNSQESVTEQDSKDSTYSLSSTLTLSKADYEKHKVYACEVTHQGLSSPVTKSFNRGEC
notes: structure 1; CD38 (MOR) x CD3; CH2 G2CH2
B3 showed an EC50 [1] of 491 nM, an EC50 [4] of 478 nM and an EC50 [2] of 104 nM.

B4: CD38-M1-SG2-2 (bispecific antibody, human IgG1, kappa)
chain: QVQLVESGGGVVQPGRSLRLSCAASGFTFSTYAMNWVRQAPGKGLEWVARIRSKYNNYATYYADSVKDRFTISRDDSKNTLYLQMNSLRAEDTAVYYCARHGNFGNSYVSWFAYWGQGTLVTVSSGGGGSGGGGSGGGGSQTVVTQEPSLTVSPGGTVTLTCRSSTGAVTTSNYANWVQQKPGQAPRGLIGGTNKRAPGVPARFSGSLLGGKAALTLSGVQPEDEAEYYCALWYSNLWVFGGGTKVEIKGRGRGSDKTHTCPPSPAPPVAGPSVFLFPPKPKDTLMISRTPEVTCVVVDVSHEDPEVQFNWYVDGVEVHNAKTKPREEQFNSTFRVVSVLTVVHQDWLNGKEYKCKVSNKGLPAPIEKTISKTKGQPREPQVCTLPPSRDELTKNQVSLSCAVKGFYPSDIAVEWESNGQPENNYKTTPPVLDSDGSFFLVSKLTVDKSRWQQGNVFSCSVMHEALHNHYTQKSLSLSPGK
heavy: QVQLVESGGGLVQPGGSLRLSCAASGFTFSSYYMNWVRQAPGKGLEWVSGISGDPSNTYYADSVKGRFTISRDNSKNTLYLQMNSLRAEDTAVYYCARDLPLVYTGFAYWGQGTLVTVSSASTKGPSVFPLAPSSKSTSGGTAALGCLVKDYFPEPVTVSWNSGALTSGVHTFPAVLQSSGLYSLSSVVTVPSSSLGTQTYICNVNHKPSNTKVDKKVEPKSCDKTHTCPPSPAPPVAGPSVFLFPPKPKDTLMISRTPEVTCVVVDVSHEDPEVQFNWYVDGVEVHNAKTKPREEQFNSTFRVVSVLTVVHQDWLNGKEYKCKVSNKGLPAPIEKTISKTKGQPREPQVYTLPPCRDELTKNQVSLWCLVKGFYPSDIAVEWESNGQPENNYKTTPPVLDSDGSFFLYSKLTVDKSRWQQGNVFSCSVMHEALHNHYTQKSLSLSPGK
light: DIELTQPPSVSVAPGQTARISCSGDNLRHYYVYWYQQKPGQAPVLVIYGDSKRPSGIPERFSGSNSGNTATLTISGTQAEDEADYYCQTYTGGASLVFGGGTKLTVLGQRTVAAPSVFIFPPSDEQLKSGTASVVCLLNNFYPREAKVQWKVDNALQSGNSQESVTEQDSKDSTYSLSSTLTLSKADYEKHKVYACEVTHQGLSSPVTKSFNRGEC
notes: structure 1; CD38 (MOR) x CD3; CH2 SG2CH2
B4 gave an EC50 [1] of 461 nM, an EC50 [4] of 437 nM and an EC50 [2] of 106 nM.

B5: CD38-M1-G2D-1 (bispecific antibody, human IgG1, kappa)
chain: QVQLVESGGGVVQPGRSLRLSCAASGFTFSTYAMNWVRQAPGKGLEWVARIRSKYNNYATYYADSVKDRFTISRDDSKNTLYLQMNSLRAEDTAVYYCARHGNFGNSYVSWFAYWGQGTLVTVSSGGGGSGGGGSGGGGSQTVVTQEPSLTVSPGGTVTLTCRSSTGAVTTSNYANWVQQKPGQAPRGLIGGTNKRAPGVPARFSGSLLGGKAALTLSGVQPEDEAEYYCALWYSNLWVFGGGTKVEIKGRGRGSDKTHTCPPCPAPPVAGPSVFLFPPKPKDTLMISRTPEVTCVVVDVSHEAPEVQFNWYVDGVEVHNAKTKPREEQFNSTFRVVSVLTVVHQDWLNGKEYKCKVSNKGLPAPIEKTISKTKGQPREPQVCTLPPSRDELTKNQVSLSCAVKGFYPSDIAVEWESNGQPENNYKTTPPVLDSDGSFFLVSKLTVDKSRWQQGNVFSCSVMHEALHNHYTQKSLSLSPGK
heavy: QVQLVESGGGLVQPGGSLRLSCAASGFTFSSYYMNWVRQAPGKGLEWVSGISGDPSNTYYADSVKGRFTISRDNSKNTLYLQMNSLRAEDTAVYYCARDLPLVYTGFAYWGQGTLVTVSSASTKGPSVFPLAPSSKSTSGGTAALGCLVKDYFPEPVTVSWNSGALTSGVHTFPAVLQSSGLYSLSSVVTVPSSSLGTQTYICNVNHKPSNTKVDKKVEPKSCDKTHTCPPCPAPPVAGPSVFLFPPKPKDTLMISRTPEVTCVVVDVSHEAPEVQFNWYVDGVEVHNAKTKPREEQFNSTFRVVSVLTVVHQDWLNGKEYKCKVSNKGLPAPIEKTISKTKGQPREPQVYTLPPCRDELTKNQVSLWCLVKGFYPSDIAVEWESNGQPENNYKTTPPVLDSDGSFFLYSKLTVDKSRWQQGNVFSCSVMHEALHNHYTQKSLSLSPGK
light: DIELTQPPSVSVAPGQTARISCSGDNLRHYYVYWYQQKPGQAPVLVIYGDSKRPSGIPERFSGSNSGNTATLTISGTQAEDEADYYCQTYTGGASLVFGGGTKLTVLGQRTVAAPSVFIFPPSDEQLKSGTASVVCLLNNFYPREAKVQWKVDNALQSGNSQESVTEQDSKDSTYSLSSTLTLSKADYEKHKVYACEVTHQGLSSPVTKSFNRGEC
notes: structure 1; CD38 (MOR) x CD3; CH2 G2DCH2
With B5 the EC50 [1] was 420 nM, the EC50 [4] was 405 nM and the EC50 [2] was 100 nM.
